Laboratory results published in US20230265151A1, “GIP/GLP1 CO-AGONIST COMPOUNDS” (priority 2020, published 2023).

T1: human GIP receptor (human, UniProt P48546 22-466)
T1 sequence (looked up): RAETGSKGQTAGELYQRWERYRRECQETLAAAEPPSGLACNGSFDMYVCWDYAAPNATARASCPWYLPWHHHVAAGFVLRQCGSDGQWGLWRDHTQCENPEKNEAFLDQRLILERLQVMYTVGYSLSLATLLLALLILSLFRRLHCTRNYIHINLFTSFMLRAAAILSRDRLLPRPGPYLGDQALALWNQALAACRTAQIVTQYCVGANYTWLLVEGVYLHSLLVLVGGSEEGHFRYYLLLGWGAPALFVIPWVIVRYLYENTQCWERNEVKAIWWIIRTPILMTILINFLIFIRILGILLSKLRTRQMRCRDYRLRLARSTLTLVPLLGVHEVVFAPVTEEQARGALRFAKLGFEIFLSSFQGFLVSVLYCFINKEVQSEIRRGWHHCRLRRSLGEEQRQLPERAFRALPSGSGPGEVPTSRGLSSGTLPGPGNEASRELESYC


Experiments:
Assay in all cases: cell-based or functional assay
[1] = target: T1, human GIP receptor
[2] = target: human GLP-1 receptor (human, UniProt P43220 24-463)
[3] = target: human glucagon receptor (human, UniProt P47871 26-477)

Binder	cAMP EC50 (1.0% HSA) [1] [nM]	cAMP Emax (1.0% HSA) [1] [%]	cAMP EC50 (1.0% HSA) [2] [nM]	cAMP EC50 (1.0% HSA) [3] [nM]	cAMP Emax (1.0% HSA) [2] [%]
YXEGTXTSDXSIXLDXKAQXKFIXXLIEGGPSSGAPPPS (Y-Aib-EGT-αMeF(2F)-TSD-hTyr-SI-αMeL-LD-Orn-K((2-[2-(2-Amino-ethoxy)-ethoxy]-acetyl)2-CO-(CH2)12-CO2H)AQ-Aib-K((2-[2-(2-Amino-ethoxy)-ethoxy]-acetyl)2-CO-(CH2)12-CO2H)FI-(D-Glu)-αMeY-LIEGGPSSGAPPPS-NH2 …) [Example 272]	0.561	81.2	4.72	> 9950	–
YXEGTXTSDXSIXLDXIAQXKFIXXLIKGGPSSGAPPPS (Y-Aib-EGT-αMeF(2F)-TSD-4Pa1-SI-αMeL-LD-Orn-IAQ-Aib-K((2-[2-(2-Amino-ethoxy)-ethoxy]-acetyl)2-(γ-Glu)-(10-(4-carboxyphenoxy)decanoyl))FI-(D-Glu)-αMeY-LIK((2-[2-(2-Amino-ethoxy)-ethoxy]-acetyl)2-(γ-Glu)-(10-(4-carboxyphenoxy)decanoyl))GGPSSGAPPPS-NH2) [Example 275]	0.926	–	33.5	> 9950	–
YXEGTXTSDXSIXLDXKAQXKFIXXLIEGGPSSGAPPPS (Y-Aib-EGT-αMeF(2F)-TSD-OMeY-SI-αMeL-LD-Orn-K((2-[2-(2-Amino-ethoxy)-ethoxy]-acetyl)2-(γ-Glu)-(10-(4-carboxyphenoxy)decanoyl))AQ-Aib-K((2-[2-(2-Amino-ethoxy)-ethoxy]-acetyl)2-(γ-Glu)-(10-(4-carboxyphenoxy)decanoyl))FI-(D-Glu)-αMeY-LIEGGPSSGAPPPS-NH2) [Example 277]	0.962	–	12.2	> 9950	–
YXEGTXTSDXSIXLDXKAQXEFIXXLIKGGPSSGAPPPS (Y-Aib-EGT-αMeF(2F)-TSD-hTyr-SI-αMeL-LD-Orn-K((2-[2-(2-Amino-ethoxy)-ethoxy]-acetyl)2-(γ-Glu)-(10-(4-carboxyphenoxy)decanoyl))AQ-Aib-EFI-(D-Glu)-αMeY-LIK((2-[2-(2-Amino-ethoxy)-ethoxy]-acetyl)2-(γ-Glu)-(10-(4-carboxyphenoxy)decanoyl))GGPSSGAPPPS-NH2) [Example 327]	0.751	–	13.6	> 9950	–
YXEGTXTSDXSIXLDXKAQXKFIXXLIEGGPSSGAPPPS (Y-Aib-EGT-αMeF(2F)-TSD-OMeY-SI-αMeL-LD-Orn-K((2-[2-(2-Amino-ethoxy)-ethoxy]-acetyl)2-(γ-Glu)-CO-(CH2)10-CH3)AQ-Aib-K((2-[2-(2-Amino-ethoxy)-ethoxy]-acetyl)2-(γ-Glu)-CO-(CH2)10-CH3)FI-(D-Glu)-αMeY-LIEGGPSSGAPPPS-NH2) [Example 289]	3.11	–	627	> 9950	170
YXEGTXTSDXSIXLDXIAQXKFIXXLIKGGPSSGAPPPS (Y-Aib-EGT-αMeF(2F)-TSD-2Nal-SI-αMeL-LD-Orn-IAQ-Aib-K((2-[2-(2-Amino-ethoxy)-ethoxy]-acetyl)2-(γ-Glu)-(10-(4-carboxyphenoxy)decanoyl))FI-(D-Glu)-αMeY-LIK((2-[2-(2-Amino-ethoxy)-ethoxy]-acetyl)2-(γ-Glu)-(10-(4-carboxyphenoxy)decanoyl))GGPSSGAPPPS-NH2) [Example 284]	8.38	–	137	> 9950	–
YXEGTXTSDXSIXLDXKAQXEFIXXLIKGGPSSGAPPPS (Y-Aib-EGT-αMeF(2F)-TSD-2Nal-SI-αMeL-LD-Orn-K((2-[2-(2-Amino-ethoxy)-ethoxy]-acetyl)2-(γ-Glu)-(10-(4-carboxyphenoxy)decanoyl))AQ-Aib-EFI-(D-Glu)-αMeY-LIK((2-[2-(2-Amino-ethoxy)-ethoxy]-acetyl)2-(γ-Glu)-(10-(4-carboxyphenoxy)decanoyl))GGPSSGAPPPS-NH2) [Example 282]	1.44	–	31.8	> 9950	–
YXEGTXTSDXSIXLDXIAQXEFIKXLIKGGPSSGAPPPS (Y-Aib-EGT-αMeF(2F)-TSD-hTyr-SI-αMeL-LD-Orn-IAQ-Aib-EFIK((2-[2-(2-Amino-ethoxy)-ethoxy]-acetyl)2-(γ-Glu)-(10-(4-carboxyphenoxy)decanoyl))-αMeY-LIK((2-[2-(2-Amino-ethoxy)-ethoxy]-acetyl)2-(γ-Glu)-(10-(4-carboxyphenoxy)decanoyl))GGPSSGAPPPS-NH2) [Example 310]	2.4	83.9	22	> 9950	–
YXEGTXTSDXSIXLDXKAQXKFIXXLIEGGPSSGAPPPS (Y-Aib-EGT-αMeF(2F)-TSD-2Nal-SI-αMeL-LD-Orn-K((2-[2-(2-Amino-ethoxy)-ethoxy]-acetyl)2-(γ-Glu)-(10-(4-carboxyphenoxy)decanoyl))AQ-Aib-K((2-[2-(2-Amino-ethoxy)-ethoxy]-acetyl)2-(γ-Glu)-(10-(4-carboxyphenoxy)decanoyl))FI-(D-Glu)-αMeY-LIEGGPSSGAPPPS-NH2) [Example 281]	1.87	–	22.4	> 9950	–
YXEGTXTSDXSIXLDXKAQXEFIXXLIKGGPSSGAPPPS (Y-Aib-EGT-αMeF(2F)-TSD-OMeY-SI-αMeL-LD-Orn-K((2-[2-(2-Amino-ethoxy)-ethoxy]-acetyl)2-(γ-Glu)-CO-(CH2)10-CH3)AQ-Aib-EFI-(D-Glu)-αMeY-LIK((2-[2-(2-Amino-ethoxy)-ethoxy]-acetyl)2-(γ-Glu)-CO-(CH2)10-CH3)GGPSSGAPPPS-NH2) [Example 290]	0.878	–	12.1	> 9950	–
YXEGTXTSDXSIXLDXKAQXKFIXXLIEGGPSSGAPPPS (Y-Aib-EGT-αMeF(2F)-TSD-hTyr-SI-αMeL-LD-Orn-K((2-[2-(2-Amino-ethoxy)-ethoxy]-acetyl)2-(γ-Glu)-CO-(CH2)10-CH3)AQ-Aib-K((2-[2-(2-Amino-ethoxy)-ethoxy]-acetyl)2-(γ-Glu)-CO-(CH2)10-CH3)FI-(D-Glu)-αMeY-LIEGGPSSGAPPPS-NH2) [Example 323]	0.694	–	9.52	> 9950	–
YXEGTXTSDXSIXLDXIAQXKFIXXLIKGGPSSGAPPPS (Y-Aib-EGT-αMeF(2F)-TSD-OMeY-SI-αMeL-LD-Orn-IAQ-Aib-K((2-[2-(2-Amino-ethoxy)-ethoxy]-acetyl)2-(γ-Glu)-(10-(4-carboxyphenoxy)decanoyl))FI-(D-Glu)-αMeY-LIK((2-[2-(2-Amino-ethoxy)-ethoxy]-acetyl)2-(γ-Glu)-(10-(4-carboxyphenoxy)decanoyl))GGPSSGAPPPS-NH2) [Example 280]	4.84	88.5	49.9	> 9950	–
YXEGTXTSDXSIXLDXIAQXEFIKXLIKGGPSSGAPPPS (Y-Aib-EGT-αMeF(2F)-TSD-OMeY-SI-αMeL-LD-Orn-IAQ-Aib-EFIK((2-[2-(2-Amino-ethoxy)-ethoxy]-acetyl)2-(γ-Glu)-(10-(4-carboxyphenoxy)decanoyl))-αMeY-LIK((2-[2-(2-Amino-ethoxy)-ethoxy]-acetyl)2-(γ-Glu)-(10-(4-carboxyphenoxy)decanoyl))GGPSSGAPPPS-NH2) [Example 279]	3.21	–	36.6	> 9950	–
YXEGTXTSDXSIXLDXKAQXKFIXXLIEGGPSSGAPPPS (Y-Aib-EGT-αMeF(2F)-TSD-Nle-SI-αMeL-LD-Orn-K((2-[2-(2-Amino-ethoxy)-ethoxy]-acetyl)2-(γ-Glu)-(10-(4-carboxyphenoxy)decanoyl))AQ-Aib-K((2-[2-(2-Amino-ethoxy)-ethoxy]-acetyl)2-(γ-Glu)-(10-(4-carboxyphenoxy)decanoyl))FI-(D-Glu)-αMeY-LIEGGPSSGAPPPS-NH2) [Example 321]	0.631	–	13.9	> 9950	–
YXEGTXTSDXSIXLDXKAQXEFIXXLIKGGPSSGAPPPS (Y-Aib-EGT-αMeF(2F)-TSD-OMeY-SI-αMeL-LD-Orn-K((2-[2-(2-Amino-ethoxy)-ethoxy]-acetyl)2-(γ-Glu)-(10-(4-carboxyphenoxy)decanoyl))AQ-Aib-EFI-(D-Glu)-αMeY-LIK((2-[2-(2-Amino-ethoxy)-ethoxy]-acetyl)2-(γ-Glu)-(10-(4-carboxyphenoxy)decanoyl))GGPSSGAPPPS-NH2) [Example 278]	1.41	–	27	> 9950	–
YXEGTXTSDXSIXLDXIAQXEFIKXLIKGGPSSGAPPPS (Y-Aib-EGT-αMeF(2F)-TSD-4Pa1-SI-αMeL-LD-Orn-IAQ-Aib-EFIK((2-[2-(2-Amino-ethoxy)-ethoxy]-acetyl)2-(γ-Glu)-(10-(4-carboxyphenoxy)decanoyl))-αMeY-LIK((2-[2-(2-Amino-ethoxy)-ethoxy]-acetyl)2-(γ-Glu)-(10-(4-carboxyphenoxy)decanoyl))GGPSSGAPPPS-NH2) [Example 274]	1.16	–	32.9	> 9950	–
YXEGTXTSDXSIXLDXIAQXKFIXXLIKGGPSSGAPPPS (Y-Aib-EGT-αMeF(2F)-TSD-4Pal-SI-αMeL-LD-Orn-IAQ-Aib-K(2-[2-(2-Amino-ethoxy)-ethoxy]-acetyl)2-(γ-Glu)-(11-(4-carboxyphenoxy)undecanoyl)FI-(D-Glu)-αMeY-LIK((2-[2-(2-Amino-ethoxy)-ethoxy]-acetyl)2-(γ-Glu)-(11-(4-carboxyphenoxy)undecanoyl)GGPSSGAPPPS-NH2)) [Example 287]	3.76	–	83.8	> 9950	–
